The source of these data is PMC6072203.

Test [1] concerns the target H77 NS5A 38A (hepatitis C virus genotype 1a (H77 strain)). Briefly: two-hybrid; Checkmate mammalian two-hybrid: GAL4/BD fusion (pBIND) and VP16/AD fusion (pACT) with the pGL4.3[luc2P/Gal4UAS/Hygro] reporter co-transfected into FT3-7 (Huh-7) cells; lysed at 48 h; F-Luc/R-Luc ratio; for NS5A both fusions carry the same NS5A.
Test [2] concerns the target YFP-fused JFH1 NS5A 148A of HJ3-5/NS5A^YFP (hepatitis C virus genotype 2a (JFH1 strain)). Briefly: co-IP; GFP immunoprecipitation (anti-GFP magnetic beads, 1 h, 4 C) of NS5A^YFP from lysates (0.5% Triton X-100, 10 mM Tris-HCl pH 7.5, 150 mM NaCl) of cells electroporated with HJ3-5/NS5A^YFP RNA; core detected by western blot; ratio of co-IP core per IP NS5A^YFP. (A western blot detects proteins with antibodies after separation by electrophoresis.)

In test [3] the target is YFP-fused JFH1 NS5A 37A of HJ3-5/NS5A^YFP (hepatitis C virus genotype 2a (JFH1 strain)). Described as above.
Test [4] has as its target YFP-fused JFH1 NS5A 38A of HJ3-5/NS5A^YFP (hepatitis C virus genotype 2a (JFH1 strain)). Described as above.
In test [5] the target is JFH1 NS5A 36A (hepatitis C virus genotype 2a (JFH1 strain)). In words: two-hybrid; Checkmate mammalian two-hybrid: GAL4/BD fusion (pBIND) and VP16/AD fusion (pACT) with the pGL4.3[luc2P/Gal4UAS/Hygro] reporter co-transfected into FT3-7 (Huh-7) cells; lysed at 48 h; F-Luc/R-Luc ratio; for NS5A both fusions carry the same NS5A.
In test [6] the target is H77 NS5A 36A/37A/38A (mutation group a). Briefly: checkmate mammalian two-hybrid assay. As to conditions: Huh-7 cells; GAL4/BD-fused and VP16/AD-fused NS5A both carry the mutations; parent: est. 100; read off a plot.
Test [7] has as its target H77 NS5A 36A/37A/38A/112A/148A (both mutation groups). Briefly: checkmate mammalian two-hybrid assay. The note with it: Huh-7 cells; GAL4/BD-fused and VP16/AD-fused NS5A both carry the mutations; parent: est. 100; read off a plot.
In another test the target is H77 NS5A 37A. In words: mammalian two-hybrid assay. The note with it: Huh-7 cells; GAL4/BD-fused and VP16/AD-fused NS5A both carry the mutation; parent: est. 100; read off a plot.
Another test deals with H77 NS5A 38A. In words: mammalian two-hybrid assay. As to conditions: Huh-7 cells; GAL4/BD-fused and VP16/AD-fused NS5A both carry the mutation; parent: est. 100; read off a plot.
A further test addresses H77 NS5A 112A (UniProt P27958). Briefly: mammalian two-hybrid assay. The note with it: Huh-7 cells; GAL4/BD-fused and VP16/AD-fused NS5A both carry the mutation; parent: est. 100; read off a plot.
Test [8] addresses H77 NS5A 112A/148A (mutation group b). Briefly: checkmate mammalian two-hybrid assay. The note with it: Huh-7 cells; GAL4/BD-fused and VP16/AD-fused NS5A both carry the mutations; parent: est. 100; read off a plot.
Another test concerns the target H77 NS5A 148A. In words: mammalian two-hybrid assay. As to conditions: Huh-7 cells; GAL4/BD-fused and VP16/AD-fused NS5A both carry the mutation; parent: est. 100; read off a plot.
The target of another test is JFH1 NS5A 36A. Briefly: checkmate mammalian two-hybrid assay. The note with it: Huh-7 cells; GAL4/BD-fused and VP16/AD-fused NS5A both carry the mutation; parent: est. 100; read off a plot.
In test [9] the target is JFH1 NS5A 36A/37A/38A (mutation group a). Briefly: checkmate mammalian two-hybrid assay. As to conditions: Huh-7 cells; GAL4/BD-fused and VP16/AD-fused NS5A both carry the mutations; parent: est. 100; read off a plot.
Test [10] deals with JFH1 NS5A 36A/37A/38A/112A/148A (both mutation groups combined). In words: checkmate mammalian two-hybrid assay. The note with it: Huh-7 cells; GAL4/BD-fused and VP16/AD-fused NS5A both carry the mutations; parent: est. 100; read off a plot.
The next test addresses JFH1 NS5A 37A. In words: checkmate mammalian two-hybrid assay. The note with it: Huh-7 cells; GAL4/BD-fused and VP16/AD-fused NS5A both carry the mutation; parent: est. 100; read off a plot.
Another test deals with JFH1 NS5A 38A. In words: checkmate mammalian two-hybrid assay. As to conditions: Huh-7 cells; GAL4/BD-fused and VP16/AD-fused NS5A both carry the mutation; parent: est. 100; read off a plot.
The target in another test is JFH1 NS5A 112A (UniProt Q99IB8). Briefly: checkmate mammalian two-hybrid assay. The note with it: Huh-7 cells; GAL4/BD-fused and VP16/AD-fused NS5A both carry the mutation; parent: est. 100; read off a plot.
The target of test [11] is JFH1 NS5A 112A/148A (mutation group b). In words: checkmate mammalian two-hybrid assay. As to conditions: Huh-7 cells; GAL4/BD-fused and VP16/AD-fused NS5A both carry the mutations; parent: est. 100; read off a plot.

As for H77 NS5A 38A (natural protein), in [1], the percent above wt NS5A self-interaction (F-Luc/R-Luc) is 30 % above wt.

As to “HCV core protein (H77 core of the chimera HJ3-5) (natural protein)”, the NS5A and core co-IP efficiency against wt (% lower than wt) in test [2], in [3] and in test [4] was 50 each time.

As for JFH1 NS5A 36A (natural protein), in test [5], the percent of wt NS5A self-interaction (F-Luc/R-Luc) was 20 % of wt.

Regarding “wild-type full-length NS5A of gt1a HCV H77 (from UniProt P27958) 36A; 37A; 38A”, the percent of parent in test [6] is 17 % wt.

Take “wild-type full-length NS5A of gt1a HCV H77 (from UniProt P27958) 36A; 37A; 38A; 112A; 148A”: the percent of parent in [7] is 3.3 % wt.

In the case of “wild-type full-length NS5A of gt1a HCV H77 (from UniProt P27958) 37A”, the percent of parent with H77 NS5A 37A worked out at 45 % wt.

Regarding “wild-type full-length NS5A of gt1a HCV H77 (from UniProt P27958) 38A”, in the test with H77 NS5A 38A, the percent of parent is 130 % wt.

For the substance “wild-type full-length NS5A of gt1a HCV H77 (from UniProt P27958) 112A”, the percent of parent with H77 NS5A 112A is 27 % wt.

For “wild-type full-length NS5A of gt1a HCV H77 (from UniProt P27958) 112A; 148A”, in test [8], the percent of parent is 11 % wt.

Take “wild-type full-length NS5A of gt1a HCV H77 (from UniProt P27958) 148A”: in the test with H77 NS5A 148A, the percent of parent was 13 % wt.

Regarding “wild-type full-length NS5A of gt2a HCV JFH1 (from UniProt Q99IB8) 36A”, in the test with JFH1 NS5A 36A, the percent of parent was found to be 22 % wt.

For “wild-type full-length NS5A of gt2a HCV JFH1 (from UniProt Q99IB8) 36A; 37A; 38A”, in test [9], the percent of parent was determined as 11 % wt.

With “wild-type full-length NS5A of gt2a HCV JFH1 (from UniProt Q99IB8) 36A; 37A; 38A; 112A; 148A”, the percent of parent in test [10] worked out at 2.5 % wt.

On to “wild-type full-length NS5A of gt2a HCV JFH1 (from UniProt Q99IB8) 37A”, for which, in the test with JFH1 NS5A 37A, the percent of parent was determined as 78 % wt.

“wild-type full-length NS5A of gt2a HCV JFH1 (from UniProt Q99IB8) 38A”: the percent of parent in the test with JFH1 NS5A 38A was determined as 77 % wt.

Take “wild-type full-length NS5A of gt2a HCV JFH1 (from UniProt Q99IB8) 112A”: in the test with JFH1 NS5A 112A, the percent of parent came out at 110 % wt.

Take “wild-type full-length NS5A of gt2a HCV JFH1 (from UniProt Q99IB8) 112A; 148A”: the percent of parent in test [11] was found to be 2.7 % wt.
